# Experimental data from IntAct's records for PubMed 18287031.
# B1: Protein aveugle (Drosophila melanogaster (Fruit fly)), Q8ML92 (parent)
# chain: MGEETINSTQNKTRTKTTRPKAVYLWTVSDVLKWYRRHCGEYTQYEQLFAQHDITGRALLRITDSSLQRMGVTDNRDREAIWREIVKQRLKTDIMEIRDMERLNIY
# B2: Connector enhancer of kinase suppressor of ras 2 (Homo sapiens), Q8WXI2 (parent)
# chain: MALIMEPVSKWSPSQVVDWMKGLDDCLQQYIKNFEREKISGDQLLRITHQELEDLGVSRIGHQELILEAVDLLCALNYGLETENLKTLSHKLNASAKNLQNFITGRRRSGHYDGRTSRKLPNDFLTSVVDLIGAAKSLLAWLDRSPFAAVTDYSVTRNNVIQLCLELTTIVQQDCTVYETENKILHVCKTLSGVCDHIISLSSDPLVSQSAHLEVIQLANIKPSEGLGMYIKSTYDGLHVITGTTENSPADRCKKIHAGDEVIQVNHQTVVGWQLKNLVNALREDPSGVILTLKKRPQSMLTSAPALLKNMRWKPLALQPLIPRSPTSSVATPSSTISTPTKRDSSALQDLYIPPPPAEPYIPRDEKGNLPCEDLRGHMVGKPVHKGSESPNSFLDQEYRKRFNIVEEDTVLYCYEYEKGRSSSQGRRESTPTYGKLRPISMPVEYNWVGDYEDPNKMKRDSRRENSLLRYMSNEKIAQEEYMFQRNSKKDTGKKSKKKGDKSNSPTHYSLLPSLQMDALRQDIMGTPVPETTLYHTFQQSSLQHKSKKKNKGPIAGKSKRRISCKDLGRGDCEGWLWKKKDAKSYFSQKWKKYWFVLKDASLYWYINEEDEKAEGFISLPEFKIDRASECRKKYAFKACHPKIKSFYFAAEHLDDMNRWLNRINMLTAGYAERERIKQEQDYWSESDKEEADTPSTPKQDSPPPPYDTYPRPPSMSCASPYVEAKHSRLSSTETSQSQSSHEEFRQEVTGSSAVSPIRKTASQRRSWQDLIETPLTSSGLHYLQTLPLEDSVFSDSAAISPEHRRQSTLPTQKCHLQDHYGPYPLAESERMQVLNGNGGKPRSFTLPRDSGFNHCCLNAPVSACDPQDDVQPPEVEEEEEEEEEEGEAAGENIGEKSESREEKLGDSLQDLYRALEQASLSPLGEHRISTKMEYKLSFIKRCNDPVMNEKLHRLRILKSTLKAREGEVAIIDKVLDNPDLTSKEFQQWKQMYLDLFLDICQNTTSNDPLSISSEVDVITSSLAHTHSYIETHV
# partner: B1 chain
# Variants of: B1
# Conditions: with cnkr2_human CNKSR2, Q8WXI2
row,Variant,effect of a mutation on the interaction
1,MGEETINSTQNKTRTKTTRPKAVYLWTVSDVLKWYRRHCGEYTQYEQLFAQHDITGEALLEITDSSLQRMGVTDNRDREAIWREIVKQRLKTDIMEIRDMERLNIY [R57E;R61E],disrupting interaction
2,MGEETINSTQNKTRTKTTRPKAVYLWTVSDVLKWYRRHCGEYTQYEQLFAQHDITGRALLEITDSSLQRMGVTDNRDREAIWREIVKQRLKTDIMEIRDMERLNIY [R61E],decreasing interaction
3,MGEETINSTQNKTRTKTTRPKAVYLWTVSDVLKWYRRHCGEYTQYEQLFAQHDITGAALLAITDSSLQRMGVTDNRDREAIWREIVKQRLKTDIMEIRDMERLNIY [R57A;R61A],decreasing interaction

# Variants of: B2
# Conditions: with ave_drome ave, Q8ML92
row,Variant,effect of a mutation on the interaction
1,D71R,decreasing interaction
2,I60A,decreasing interaction
3,E68R;D71R,disrupting interaction
